From patent US20050106100
Where “and” joins values, the source holds several entries; their conditions need not be identical. Equal values may be shown once.

How the values were obtained:
[1] = biological target: T1, Ac-PLG˜Ahp-OL-Ahxh-Ac[C14] (not fully specified)
T1 chain: PLGXXL

[2] = biological target: T2, Ac-P-Cit-Aib˜Hphe-LA-Ahxh-Hynic (not fully specified)
T2 chain: PXXXLA

[3] = biological target: T3, Ac-P-Cit-G˜Aib-LA-Ahxh-Hynic (not fully specified)
T3 chain: PXGXLA

[4] = biological target: T4, Hynic-fff-Ahx-PLG˜Hphe-OLEE-OH
T4 chain: FFFXPLGXXLEE

[5] = biological target: T5, Ac-PLG˜LYT-Ahxh-Hynic (not fully specified)
T5 chain: PLGLYT

[6] = biological target: T6, Ac-P-Cit-G˜Abu-LA-Ahxh-Hynic (not fully specified)
T6 chain: PXGXLA

[7] = biological target: T7, Ac-Inp-Cit-G˜Hphe-LA-Ahxh-Hynic (not fully specified)
T7 chain: XXGXLA

[8] = biological target: T8, Ac-PLG˜Hphe-RLT-Ahxh-Hynic
T8 chain: PLGXRLT

[9] = biological target: T9, Ac-P-Cit-G˜Igl-LA-Ahxh-Hynic (not fully specified)
T9 chain: PXGXLA

[10] = biological target: T10, Ac-PLG˜LOL-Ahxh-Hynic (not fully specified)
T10 chain: PLGLXL

[11] = biological target: T11, Ac-PLG˜LYL-Ahxh-Hynic (not fully specified)
T11 chain: PLGLYL

[12] = biological target: T12, Ac-Oic-LG˜LL-Ahxh-Ac[C14] (not fully specified)
T12 chain: XLGLL

[13] = biological target: T13, H-γ-DGlu-PLG-LYT-Ahxh-Hynic (not fully specified)
T13 chain: EPLGLYT

[14] = biological target: T14, NLys-PLG˜Hphe-YL-Ambh-Hynic
T14 chain: XPLGXYL

[15] = biological target: T15, Ac-PLG˜Hphe-YL-Hynic
T15 chain: PLGXYL

[16] = biological target: T16, Ac-PRR˜Cha-TA-Ambh-Hynic
T16 chain: PRRXTA

[17] = biological target: T17, Ac-PLG˜LLA-Ahxh-Hynic (not fully specified)
T17 chain: PLGLLA

[18] = biological target: T18, Ac-PLG˜Hphe-YLA-Ahxh-Hynic
T18 chain: PLGXYLA

[19] = biological target: T19, Ac-POG˜Hphe-LA-Ahxh-Hynic
T19 chain: PXGXLA

[20] = biological target: T20, Ac-P-NLys-R˜LTA-Ahxh-Hynic (not fully specified)
T20 chain: PXRLTA

[21] = biological target: T21, Ac-VRW˜LLA-Ahxh-Hynic
T21 chain: VRWLLA

[22] = biological target: T22, Hynic-ff-Ahx-PLG˜Hphe-OLEE-OH
T22 chain: FFXPLGXXLEE

[23] = biological target: T23, Ac-P-Cit-G˜Hphe-Cit-L-Ahxh-Hynic (not fully specified)
T23 chain: PXGXXL

[24] = biological target: T24, Ac-PL-NLys-LL-NHNH-Ac[C14]
T24 chain: PLXLL

[25] = biological target: T25, Ac-POG˜Hphe-L-Ambh-Hynic
T25 chain: PXGXL

[26] = biological target: T26, Ac-P-NLeu-G˜LL-Ahxh-Ac[C14] (not fully specified)
T26 chain: PXGLL

[27] = biological target: T27, Suc-PLG˜LYT-Ahxh-Hynic
T27 chain: PLGLYT

[28] = biological target: T28, Ac-PLG˜Hphe-YLR-Ahxh-Hynic
T28 chain: PLGXYLR

[29] = biological target: T29, Ac-PL-NLys˜Hphe-RL-Ahxh-Ac[C14] (not fully specified)
T29 chain: PLXXRL

[30] = biological target: T30, Ac-P-Hcit-G˜Hphe-SA-Ahxh-Hynic (not fully specified)
T30 chain: PXGXSA

[31] = biological target: T31, Ac-P-DLeu-G˜LL-Ahxh-Hynic (not fully specified)
T31 chain: PLGLL

[32] = biological target: T32, Ac-VRW˜LTA-Ahxh-Hynic (not fully specified)
T32 chain: VRWLTA

[33] = biological target: T33, Ac-PLG˜L-Cha-Ahxh-Ac[C14] (not fully specified)
T33 chain: PLGLX

[34] = biological target: T34, Ac-P-Cit-G˜S(OBn)-LA-Ahxh-Hynic (not fully specified)
T34 chain: PXGSLA

[35] = biological target: T35, Ac-PLG˜LYA-Ahxh-Hynic (not fully specified)
T35 chain: PLGLYA

[36] = biological target: T36, Ac-PL-DAla˜LL-Ahxh-Hynic (not fully specified)
T36 chain: PLALL

[37] = biological target: T37, Ac-PRQ˜IT-Ahxh-Hynic
T37 chain: PRQIT

[38] = biological target: T38, Ac-Hpro-Cit-G˜Hphe-TA-Ahxh-Hynic (not fully specified)
T38 chain: XXGXTA

[39] = biological target: T39, Ac-PLG˜Hphe-RL-Ahxh-Hynic
T39 chain: PLGXRL

[40] = biological target: T40, Ac-P-Cit-G˜Chg-LA-Ahxh-Hynic (not fully specified)
T40 chain: PXGXLA

[41] = biological target: T41, Ac-NLys-PLG˜LL-Ahxh-Hynic (not fully specified)
T41 chain: XPLGLL

[42] = biological target: T42, Ac-PRQ˜ITA-Ahxh-Hynic
T42 chain: PRQITA

[43] = biological target: T43, Hynic-Ahx-PLG˜Hphe-OLEE-OH
T43 chain: XPLGXXLEE

[44] = biological target: T44, Ac-PLG˜LWA-Ahxh-Hynic (not fully specified)
T44 chain: PLGLWA

[45] = biological target: T45, Ac-PRR˜LTA-Ahxh-Hynic
T45 chain: PRRLTA

[46] = biological target: T46, Ac-PLG˜Hphe-RLA-Ahxh-Hynic
T46 chain: PLGXRLA

[47] = biological target: T47, Ac-P-Cit-G˜Nle-LA-Ahxh-Hynic (not fully specified)
T47 chain: PXGXLA

[48] = biological target: T48, Ac-P-Cit-G˜Hphe-L-Ahxh-Hynic (not fully specified)
T48 chain: PXGXL

[49] = biological target: T49, Ac-PLG˜S(OBn)-LL-Ahxh-Ac[C14] (not fully specified)
T49 chain: PLGSLL

[50] = biological target: T50, Ac-NGlu-POG˜Hphe-L-Hynic (not fully specified)
T50 chain: XPXGXL

[51] = biological target: T51, Ac-PHG˜Hphe-L-Ahxh-Hynic (not fully specified)
T51 chain: PHGXL

[52] = biological target: T52, Ac-PL-NLys˜Hphe-L-Ahxh-Ac[C14] (not fully specified)
T52 chain: PLXXL

B1: MMP-2 (protein)
chain: APSPIIKFPGDVAPKTDKELAVQYLNTFYGCPKESCNLFVLKDTLKKMQKFFGLPQTGDLDQNTIETMRKPRCGNPDVANYNFFPRKPKWDKNQITYRIIGYTPDLDPETVDDAFARAFQVWSDVTPLRFSRIHDGEADIMINFGRWEHGDGYPFDGKDGLLAHAFAPGTGVGGDSHFDDDELWTLGEGQVVRVKYGNADGEYCKFPFLFNGKEYNSCTDTGRSDGFLWCSTTYNFEKDGKYGFCPHEALFTMGGNAEGQPCKFPFRFQGTSYDSCTTEGRTDGYRWCGTTEDYDRDKKYGFCPETAMSTVGGNSEGAPCVFPFTFLGNKYESCTSAGRSDGKMWCATTANYDDDRKWGFCPDQGYSLFLVAAHEFGHAMGLEHSQDPGALMAPIYTYTKNFRLSQDDIKGIQELYGASPDIDLGTGPTPTLGPVTPEICKQDIVFDGIAQIRGEIFFFKDRFIWRTVTPRDKPMGPLLVATFWPELPEKIDAVYEAPQEEKAVFFAGNEYWIYSASTLERGYPKPLTSLGLPPDVQRVDAAFNWSKNKKTYIFAGDKFWRYNEVKKKMDPGFPKLIADAWNAIPDNLDAVVDLQGGGHSYFFKGAYYLKLENQSLKSVKFGSIKSDWLGC
Kcat/Km [1]: 4970 M⁻¹ s⁻¹
Kcat/Km [2]: 275 M⁻¹ s⁻¹
Kcat/Km [3]: 0 M⁻¹ s⁻¹
Kcat/Km [4]: 11600 M⁻¹ s⁻¹
Kcat/Km [5]: 186000 M⁻¹ s⁻¹
Kcat/Km [6]: 17600 M⁻¹ s⁻¹
Kcat/Km [7]: 4580 M⁻¹ s⁻¹
Kcat/Km [8]: 119000 M⁻¹ s⁻¹
Kcat/Km [9]: 189 M⁻¹ s⁻¹
Kcat/Km [10]: 91400 M⁻¹ s⁻¹
Kcat/Km [11]: 65300 M⁻¹ s⁻¹
Kcat/Km [12]: 0 M⁻¹ s⁻¹
Kcat/Km [13]: 153000 M⁻¹ s⁻¹
Kcat/Km [14]: 121000 M⁻¹ s⁻¹
Kcat/Km [15]: 63200 M⁻¹ s⁻¹
Kcat/Km [16]: 0 M⁻¹ s⁻¹
Kcat/Km [17]: 387000 M⁻¹ s⁻¹
Kcat/Km [18]: 221000 M⁻¹ s⁻¹
Kcat/Km [19]: > 500000 M⁻¹ s⁻¹
Kcat/Km [20]: 0 M⁻¹ s⁻¹
Kcat/Km [21]: 43000 M⁻¹ s⁻¹
Kcat/Km [22]: 81600 M⁻¹ s⁻¹
Kcat/Km [23]: 42600 M⁻¹ s⁻¹
Kcat/Km [24]: 134000 M⁻¹ s⁻¹
Kcat/Km [25]: 77700 M⁻¹ s⁻¹
Kcat/Km [26]: 0 M⁻¹ s⁻¹
Kcat/Km [27]: 141000 M⁻¹ s⁻¹
Kcat/Km [28]: 364000 M⁻¹ s⁻¹
Kcat/Km [29]: 102000 M⁻¹ s⁻¹
Kcat/Km [30]: 293000 M⁻¹ s⁻¹
Kcat/Km [31]: 5010 M⁻¹ s⁻¹
Kcat/Km [32]: 14400 M⁻¹ s⁻¹
Kcat/Km [33]: 359000 M⁻¹ s⁻¹
Kcat/Km [34]: > 250000 M⁻¹ s⁻¹
Kcat/Km [35]: 404000 M⁻¹ s⁻¹
Kcat/Km [36]: 0 M⁻¹ s⁻¹
Kcat/Km [37]: 898 M⁻¹ s⁻¹
Kcat/Km [38]: 99600 M⁻¹ s⁻¹
Kcat/Km [39]: 242000 M⁻¹ s⁻¹
Kcat/Km [40]: 14400 M⁻¹ s⁻¹
Kcat/Km [41]: 76300 M⁻¹ s⁻¹
Kcat/Km [42]: 2400 M⁻¹ s⁻¹
Kcat/Km [43]: 83900 M⁻¹ s⁻¹ and 42500 M⁻¹ s⁻¹
Kcat/Km [44]: > 500000 M⁻¹ s⁻¹
Kcat/Km [45]: 10100 M⁻¹ s⁻¹
Kcat/Km [46]: 64000 M⁻¹ s⁻¹
Kcat/Km [47]: 174000 M⁻¹ s⁻¹
Kcat/Km [48]: 161000 M⁻¹ s⁻¹
Kcat/Km [49]: 473000 M⁻¹ s⁻¹
Kcat/Km [50]: 265 M⁻¹ s⁻¹
Kcat/Km [51]: 22100 M⁻¹ s⁻¹
Kcat/Km [52]: 465000 M⁻¹ s⁻¹
